What all share (conditions): both partners purified
The target in experiment [1] is T1, Human Rac1 (residues 1-177), GMPPNP-loaded (human, UniProt P63000 1-177). The experiment in a line: ITC; POSH_(315-380) (1000 uM) titrated into GMPPNP-loaded Rac1 (125 uM), 35 °C, 50 mM HEPES pH 6.9, 150 mM NaCl, 5 mM MgCl2, 2 mM TCEP; model 'One set of sites'; duplicates.
The target in experiment [2] is T1, Human Rac1 (residues 1-177), …. The experiment in a line: ITC; Kd at 25 °C not measured directly (binding enthalpy close to 0); estimated through linear extrapolation of the Gibbs free energy measured by ITC at 5, 10, 15 and 35 °C; same buffer.
For experiment [3] the target is unchanged. The experiment in a line: NMR 15N CEST; 15N POSH_(315-380) (500 uM) with 20% molar ratio of Rac1 (100 uM), 950 MHz, four B1 fields (5.2, 10.3, 20.5, 68.6 Hz); global fit with a linear 4-site exchange model (ChemEx), total bound population fixed from Kd = 24 uM at 25 °C.

Here are results for one molecule from paper PMC12728182, “Hierarchical folding-upon-binding of an intrinsically disordered protein” (Nature Communications, 2025).

B1: POSH_(315-380), shorter construct of human POSH comprising MRE1 and MRE2 (domain or fragment)
chain: GHMWSQASQNRHSMEISPPVLISSSNPTAAARISELSGLSCSAPSQVHISTTGLIVTPPPSSPVTTGPSF
In experiment [1], B1 displayed a Kd of 21 to 46 µM. Also, the Kd in experiment [2] was 24 µM. Further, in experiment [3], the “kAB (intermediate A to B, folding of the MRE1 helix on Rac1, 4-site model)” value worked out at 72 s⁻¹ and the “kBC (intermediate B to final complex C, folding of MRE2 on Rac1, 4-site model)” value worked out at 89 s⁻¹.
